Test results reported in US20250304644A1, “PEPTIDES TRIPLE AGONISTS OF GIP, GLP-1 AND GLP-2” (BAINAN BIOTECH APS, priority 2021, published 2025).
*1 amine or outer side, *2 acyl side, *3 side chain or, on linkers, in order; H or OH if unused. Where no end group is shown, it is not given here. Side-chain parts run from the residue outwards. The star is where a group is joined. C18 diacid = O=C(O)CCCCCCCCCCCCCCCCC(=O)*; γGlu = O=C(O)[C@H](CCC(=O)[*:2])N[*:1]; AEEA = NCCOCCOCC(=O)O

T1: human GIPR (glucose-dependent insulinotropic polypeptide receptor) (human, UniProt P48546 22-466)
T1 sequence (looked up): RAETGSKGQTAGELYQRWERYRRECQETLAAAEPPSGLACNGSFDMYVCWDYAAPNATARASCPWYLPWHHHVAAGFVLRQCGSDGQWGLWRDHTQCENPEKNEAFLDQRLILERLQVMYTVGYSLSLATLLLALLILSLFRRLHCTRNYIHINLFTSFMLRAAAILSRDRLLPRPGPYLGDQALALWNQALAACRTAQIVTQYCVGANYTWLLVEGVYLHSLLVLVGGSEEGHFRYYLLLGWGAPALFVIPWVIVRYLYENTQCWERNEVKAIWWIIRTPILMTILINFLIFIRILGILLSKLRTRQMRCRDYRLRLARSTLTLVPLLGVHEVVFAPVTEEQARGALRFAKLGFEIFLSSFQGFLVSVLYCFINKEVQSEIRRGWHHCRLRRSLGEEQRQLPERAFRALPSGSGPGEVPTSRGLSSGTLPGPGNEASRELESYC

T2: human GLP-2R (glucagon-like peptide-2 receptor) (human, UniProt O95838 1-553)
T2 sequence (looked up): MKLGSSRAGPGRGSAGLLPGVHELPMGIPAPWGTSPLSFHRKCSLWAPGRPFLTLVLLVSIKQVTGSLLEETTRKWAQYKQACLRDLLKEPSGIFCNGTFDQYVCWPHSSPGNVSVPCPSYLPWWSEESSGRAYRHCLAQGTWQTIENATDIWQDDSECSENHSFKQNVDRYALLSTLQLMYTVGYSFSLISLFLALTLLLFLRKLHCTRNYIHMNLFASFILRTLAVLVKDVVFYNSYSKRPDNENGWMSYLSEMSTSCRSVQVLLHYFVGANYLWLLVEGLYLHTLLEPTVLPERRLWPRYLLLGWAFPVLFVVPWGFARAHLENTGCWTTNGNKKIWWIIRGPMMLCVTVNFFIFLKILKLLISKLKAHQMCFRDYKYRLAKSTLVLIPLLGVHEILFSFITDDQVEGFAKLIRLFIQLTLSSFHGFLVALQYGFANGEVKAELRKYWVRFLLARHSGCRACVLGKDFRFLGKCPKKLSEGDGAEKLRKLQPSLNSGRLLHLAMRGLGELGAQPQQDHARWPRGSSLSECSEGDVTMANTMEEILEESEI

T3: Human N-terminally SNAP-tagged GIPR (human, UniProt P48546 22-466, SNAP tag labeled with Tag-Lite SNAP-Lumi4-Tb)
T3 sequence (looked up): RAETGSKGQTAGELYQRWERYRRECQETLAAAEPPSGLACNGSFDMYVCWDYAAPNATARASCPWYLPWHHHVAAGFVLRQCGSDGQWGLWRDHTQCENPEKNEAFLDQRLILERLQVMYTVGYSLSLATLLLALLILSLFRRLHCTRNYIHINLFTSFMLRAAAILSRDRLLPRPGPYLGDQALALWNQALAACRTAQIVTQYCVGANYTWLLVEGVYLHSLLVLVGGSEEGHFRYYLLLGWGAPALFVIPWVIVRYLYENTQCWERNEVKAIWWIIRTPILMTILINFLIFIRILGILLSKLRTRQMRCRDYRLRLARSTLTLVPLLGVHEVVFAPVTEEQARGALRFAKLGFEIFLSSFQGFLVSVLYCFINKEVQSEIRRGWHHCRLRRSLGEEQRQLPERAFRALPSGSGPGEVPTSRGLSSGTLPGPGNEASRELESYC

T4: human SNAP-tagged GLP-2R (human, UniProt O95838 1-553, SNAP tag labeled with Tag-Lite SNAP-Lumi4-Tb)
T4 sequence (looked up): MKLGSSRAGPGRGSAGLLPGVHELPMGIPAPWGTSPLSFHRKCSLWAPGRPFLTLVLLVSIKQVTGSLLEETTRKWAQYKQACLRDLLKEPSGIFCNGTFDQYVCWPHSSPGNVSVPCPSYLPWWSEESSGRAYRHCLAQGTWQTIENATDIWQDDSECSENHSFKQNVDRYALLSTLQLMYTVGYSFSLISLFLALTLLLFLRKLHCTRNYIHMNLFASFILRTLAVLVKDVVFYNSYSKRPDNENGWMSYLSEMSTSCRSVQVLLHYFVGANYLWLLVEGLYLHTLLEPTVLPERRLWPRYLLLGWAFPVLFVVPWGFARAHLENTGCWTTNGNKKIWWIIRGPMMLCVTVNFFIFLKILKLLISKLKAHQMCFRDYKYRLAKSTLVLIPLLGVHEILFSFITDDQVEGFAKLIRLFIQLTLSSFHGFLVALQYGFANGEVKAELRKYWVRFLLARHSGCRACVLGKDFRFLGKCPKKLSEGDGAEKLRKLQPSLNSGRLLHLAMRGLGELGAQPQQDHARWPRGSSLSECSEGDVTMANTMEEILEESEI


How the values were obtained:
Assay in all cases: cell-based or functional assay
[1] = target: T1, human GIPR (glucose-dependent …)
[2] = target: T2, human GLP-2R (glucagon-like peptide-2 …)
[3] = target: human GLP-1R (glucagon-like peptide-1 receptor) (human, UniProt P43220 24-463)
[4] = target: T3, Human N-terminally SNAP-tagged GIPR
[5] = target: T4, human SNAP-tagged GLP-2R

Binder | EC50 (nM) GIPR [1] | Efficacy GIPR [1] | pEC50 GIPR [1] | EC50 (nM) GLP-2R [2] | Efficacy GLP-2R [2] | logEC50 GLP-2R [2] | EC50 (nM) GLP-1R [3] | Efficacy GLP-1R [3] | logEC50 GLP-1R [3] | Absolute hGIPR internalization (AUC) [4] | Relative hGIPR internalization (%) [4] | Absolute hGLP-2R internalization (AUC) [5]
HADGTFTSDYSTILDKLAARDFINWLIQTKGKKNDWK([AEEA-AEEA-γGlu-C18 diacid])HNITQ-OH [Compound 25] | 0.398 nM | 107 | 9.4 | 7.9 nM | 117 | 8.1 | 0.05 nM | 116 | 10.3 | 13.1 AUC | 35% | 
HADGSFSDEMNTILDNLAARDFINWLIQTKITD (ligand) [hGLP-2] |  |  |  |  |  |  |  |  |  |  |  | 48.6 AUC
HADGTFTSDYSTILDKK([AEEA-AEEA-γGlu-C18 diacid])AARDFINWLIQTKGKKNDWKHNITQ-OH [Compound 23] | 7.08 nM | 82 | 8.2 | 3.5 nM | 95 | 8.5 | 0.05 nM | 105 | 10.3 | 1.2 AUC | 3% | 
HADGTFTSDYSTILDKLAARDFINWLIQTKGKKNDWKHNITQK([AEEA-AEEA-γGlu-C18 diacid])-OH [Compound 26] |  |  |  | 5.6 nM | 112 | 8.3 | 0.04 nM | 103 | 10.4 | 16.4 AUC | 44% | 
